Drawing on patent publication US9371374, this text covers Reactivity (OD492) for 13 molecules.

Residue numbers refer to the chain shown, from its start.

What all share (test): EIA, captured mAb
Test [1] deals with biotinylated HCV core peptide 141-161 (Peptide 2) (HCV-1).
Test [2] has as its target biotinylated HCV core peptide 134-154 (Peptide 1) (HCV-1).
Test [3] deals with biotinylated HCV core peptide 151-171 (Peptide 3) (HCV-1).

B1: HCV 208B-1096 (antibody, V domains shown)
VH: QVQLQQSGAGLAKPGASVKMSCKASGYTFTANKMHWAKQRPGQGLEWIGYIDPSSGYTEYNHKIQYKATLTADTSSSTAYMQLSTLTFEDSAVYYCTNFAYWGQGTLVTVSA
VL: DIVMTQTPLTLSVTIGQPASISCKSSQSLLFTNGKTYLNWFLQRPGQSPKRLIYLLSKLDSGVPDRFSGSGSGTDFTLKISRVEAEDLGVYYCLQSTYFPLTFGAGTKLELKR
Take B1: the values for the Reactivity (OD492) in test [1], in test [2] and in test [3] were 0.13 OD, 0.34 OD and 3.56 OD, respectively.

B2: HCV 208B-395 (antibody, V domains shown)
VH: B1 VH with A37T, E59Q, Y66D, T85S
VL: DIVLTQSPATLSVTPGDRVSLSCRASQRIYNYLHWYQQKSHESPRLLIKYASQSISGIPSRFSGSGSGTDFILTINSVETEDFGMYFCQQSNSWPLTFGAGTKLELRR
As for B2, the Reactivity (OD492) stood at 0.13 OD in test [1], 0.54 OD in test [2] and 3.69 OD in test [3].

B3: HCV 208B-1024 (antibody, V domains shown)
VH: EVQLVESGGDLVKPGGSLKLSCAASGFTFSNYGMSWVRQTPDKRLEWVATISSGGSYSYYPDSVKGRFTISRDNAKNILYLQMSSLKSEDTAMYYCASLYYGYGDYWGQGTAFTVSS
VL: DVLMTQTPLSLPVSLGDQASISCRSSQSIVHSNGNTYLEWYLQKLGQSPKLLIYRVSNRFSGVPDRFSGSGSGTDFTLKISRVEAEDLGVYYCFQGSHVPWTFGGGTKLEIKR
As to B3, the results for the Reactivity (OD492) in test [1], in test [2] and in test [3] were 0.75 OD, 0.08 OD and 0.15 OD, respectively.

B4: HCV 208B-281 (antibody, V domains shown)
VH: QGQLQQSGAELVKPGASVKLSCKTSGFTFSSSYISWLKQRPGQSLEWIAWIYAGTGGTNYNQKFTDKAQLTVDTSSSTAYMQFSSLTTEDSAIYYCAISGTGFIYWGQGTLVTVSA
VL: B3 VL with I29L, S32N, Y41F, L45P, R55K, W101F, G105S
Take B4: the Reactivity (OD492) in test [1] was 0.16 OD; in test [2] it was 1.48 OD; in test [3], 0.12 OD.

B5: HCV 208B-189 (antibody, V domains shown)
VH: QVHLQQSGAELAKPGASVQMSCKASGYTFTANKMHWARQRPRQGLEWIGYIDPASGYTEYNQKIKDRATLTADKSSSTAYMQLSSLTSEDSAVYYCTNFAYWGQGTLVTVST
VL: not shown
For the molecule B5, the Reactivity (OD492) stood at 0.15 OD in test [1], 0.55 OD in test [2] and 3.95 OD in test [3].

B6: HCV 208A-877 (antibody, V domains shown)
VH: QLQQSGPELVKPGASVKISCKTSGYTFTENAMHWVKQSRGKSLEWIGGVNPNNGDTVYTQKFKGKATLTVAKSSSTAYMELRTMTCEESTVYYCASREPDFFDYWGQGSSVTVSS
VL: QIVLTQSPAIMSVSPGEKVSMTCSASSSVTYMHWYQQKSGTSPKRWIYDTSELASGVPARFSGSGSGTTYSLTISSMEAEDAATYYCQQWSNKPLTFGAGTKLELKR
In the case of B6, the results for the Reactivity (OD492) in test [1], in test [2] and in test [3] were 1.21 OD, 0.06 OD and 0.05 OD, respectively.

B7: HCV 208A-638 (antibody, V domains shown)
VH: QGQLQQPGAEFVKPGASLKLSCRASGYTFTSYWIHWVKQRPGQGLEWIGEVDPSDSYINQNEKFRGKATLTVDKSSSTAYMQLGSLTSEDSAVYYCARHYYGVLDSWGQGTALTVSS
VL: QIVLTQSPTIMSASLGERVTMTCTASSSVSSSYLHWFQQKPGSSPKLWIYSTSNLASGVPPRFSGSGSGTSYSLSISSVEAEDVATYYCLQFHRSPWTFGGGAKLEIKR
For B7, the Reactivity (OD492) in test [1] worked out at 2.96 OD; in test [2], 0.07 OD; in test [3] it was 0.09 OD.

B8: HCV 208B-1094 (antibody, V domains shown)
VH: EVQLQQSGPELVKPGASVKISCKTSGYTFTEYAMHWMKQSHGKSLEWIGGINPTNGDTIYNQRFKDKAKLTVDRSSSTAYMELRSLTSDDSALFYCARRELDYFASWGQGTTLTVSS
VL: DIVLTQSPASLIVSLGQTATISCRASQSLSTSRFSYVHWIQQKPGQPPKLLIKYASNLESGVPVRFSGSGSGTDFTLNIHPVEEEDTATYFCQHSWEFPFTFGSGTKLKIKR
Regarding B8, the Reactivity (OD492) in test [1] amounted to 3.28 OD; in test [2], 0.12 OD; in test [3], 0.13 OD.

B9: HCV 208B-327 (antibody, V domains shown)
VH: EVQLVESGGGLVKPGGSLKLSCAASGFTFSDSYMYWVRQTPDQRLEWVATISDGGSYTFYPDSVKGRFTISRDNAQNNLYLQMSSLKSEDTAMYYCASPHAGYFGWFAYWGRGTLVTVSA
VL: DIVMTQAAFSNPVTPGTSVSISCRSSKSLLHSNGITYLYWYLQKPGQSPQLLIYQMSKIASGVPDRFRSSGSGTDFTLRISRVEAADVGVYYCAQNLELPWTFGGGTKLEIKR
In the case of B9, the Reactivity (OD492) was determined as 0.05 OD in test [1], 0.07 OD in test [2] and 0.49 OD in test [3].

B10: HCV 208A-741 (antibody, V domains shown)
VH: QLQQSGPVLVKPGASVMISCKTSGYTFTENAMHWVKQSHGKSLEWIGGVNPNNGDTIFNQKFKGKATLTVDKSSSTAFMELRSLTSEESTVYYCVRRELDFFDYWGQGTSVTVSS
VL: DIVLTQSPASLAVSLGQRTTISCGASQSVSTSRFSYMHWYQQKPGQPPKLLIKYASNLESGVPARFSGSGSGTDFTLNIHPVAEEDTAAYYCQHSWEFPFTFGSGTKLEIKR
For B10, the results for the Reactivity (OD492) in test [1], in test [2] and in test [3] were 3.37 OD, 1.2 OD and 0.06 OD, respectively.

B11: HCV 208A-830 (antibody, V domains shown)
VH: EVRLQQPGPEVEKPGASVKISCKTSGYTFTEYAIHWVKQSHGESLEWIGGINPSNGDPIYNQIFKDKATLTVDRSSNTAYMGLRSLTVGDSGVYFCVRRQLDYFDFWGQGASLTVSS
VL: B10 VL with T19A, G24R, A25S, F34Y, M37L, A83G, T87P, A89T
As for B11, the Reactivity (OD492) in test [1] was found to be 2.88 OD; in test [2], 0.07 OD; in test [3], 0.08 OD.

B12: HCV 208B-251 (antibody, V domains shown)
VH: B10 VH with M17K, F58Y, T90P, Y93F
VL: B10 VL with Q17K, R18K, T19A, G24R, F34Y, Q46H
For the molecule B12, the Reactivity (OD492) was 2.35 OD in test [1], 0.11 OD in test [2] and 0.41 OD in test [3].

B13: HCV 208B-178 (antibody, V domains shown)
VH: DVKLVESGGGLVKLGGSLKLSCAASGFTFSSYYMSWVRQTPEKRLELVAAINSNGGSTYYPDTVKGRFTISRDNAKNTLYLQMSSLKSEDTALYYCARHGGLGRRDWYFDVWGAGTTVTVSS
VL: DIVLTQSPASLAVSLGQRATISCRASESVDNYGISFMHWYQQKPGQPPKLLIYRASNLESGIPARFSGSGSRTDFTLTINPVETDDVATYYCQQSNKDPFTFGSGAKLEIKR
As for B13, the Reactivity (OD492) in test [1] is 0.07 OD; in test [2] it was 0.1 OD; in test [3], 1.69 OD.
